The values below come from patent US20170265788A1.

Experiment [1] addresses p53 (Santa Cruz sc-4246) (UniProt P04637). The experiment is described as follows: LSPR fiber tip probe, first of three devices, Langmuir fit.
Experiment [2] has the same target. The experiment is described as follows: LSPR fiber tip probe, third of three devices, Langmuir fit.
Experiment [3] shares this target. The experiment is described as follows: LSPR fiber tip probe, shift vs. concentration, Langmuir fit.
For experiment [4] the target is unchanged. The experiment is described as follows: LSPR fiber tip probe, second of three devices, Langmuir fit.
The target is the same in experiment [5]. Put plainly: LSPR fiber tip probe, antibody on gold nanorod, 1 nM p53 in PBS.
The target is the same in experiment [6]. The experiment is described as follows: LSPR fiber tip probe, antibody on gold nanorod, 18.92 nM p53 in PBS.
Experiment [7] shares this target. The experiment is described as follows: LSPR fiber tip probe, shift vs. concentration, Langmuir fit (FIG. 3B).
The target is the same in experiment [8]. The experiment is described as follows: UV-Visible spectroscopy of antibody-coated gold nanorods in solution, resonance shift vs. concentration, Langmuir fit.

Chain of UniProt P04637 (P04637 whole entry): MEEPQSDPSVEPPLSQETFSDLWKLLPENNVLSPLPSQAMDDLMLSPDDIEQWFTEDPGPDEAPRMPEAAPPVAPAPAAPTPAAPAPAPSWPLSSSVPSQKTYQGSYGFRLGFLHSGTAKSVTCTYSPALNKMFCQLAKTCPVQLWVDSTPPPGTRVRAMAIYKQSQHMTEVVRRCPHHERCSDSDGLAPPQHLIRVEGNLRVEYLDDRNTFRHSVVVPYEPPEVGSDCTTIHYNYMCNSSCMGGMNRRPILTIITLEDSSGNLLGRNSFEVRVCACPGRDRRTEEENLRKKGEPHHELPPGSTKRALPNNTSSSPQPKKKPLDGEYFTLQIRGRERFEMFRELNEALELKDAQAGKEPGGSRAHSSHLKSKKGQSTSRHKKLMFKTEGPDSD

With p53 antibody (Santa Cruz sc-126), the Kd was found to be 5.5 nM in experiment [1]; 7.1 nM in experiment [2]; 5.5 nM in experiment [3]; 4.2 nM in experiment [4]; 5.4 nM in experiment [7]; 4.3 nM in experiment [8]. Besides, the figures for the LSPR shift in experiment [5] and in experiment [6] were 0.55 nm and 5.13 nm, respectively.

As usually defined, the Kd is the concentration at which binding is half-saturated.
